The supplement of paper PMC7877785
± gives the uncertainty stated by the source.

Test: self-splicing fitness, log relative to wild type (ln ratio); higher = more splicing; Tetrahymena group I intron in knt gene, E. coli kanamycin selection, DiMSum; sequences stand for … in CUCUCU…GGAGGGAAAAGUUAUCAGGCAUGCACCUGGUAGCUAGUCUUUAAACCAAUAGAUUGCAUCGGUUUAAAAGGCAAGACCGUCAAAUUGCGGGAAAGGGGUCAACAGCCGUUCAGUACCAAGUCUCAGGGGAAACUUUGAGAUGGCCUUGCAAAGGGUAUGGUAAUAAGCUGACGGACAUGGUCCUAACCACGCAGCCAAGUCCUAAGUCAACAGAUCUUCUGUUGAUAUGGAUGCAGUUCACAGACUAAAUGUCGGUCGGGGAAGAUGUAUUCUUCUCAUAAGAUAUAGUCGGACCUCUCCUUAAUGGGAGCUAGCGGAUGAAGUGAUGCAACACUGGAGCCGCUGGGAACUAAUUUGUAUGCGAAAGUAUAUUGAUUAGUUUUGGAGUACUCGUGGUCG
In short: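 Colonies from six replicate transformations of E. coli BL21(DE3) were pooled and amplicon-sequenced on an Illumina HiSeq 2500. The library placed an intron with all eight P1ex-region nucleotides randomised inside the knt kanamycin-resistance gene on pET-22b(+), and cells grew overnight at 37°C or 30°C on LB agar with or without 25 μg/mL kanamycin (plus 100 μg/mL carbenicillin, 50 μM IPTG, 0.2% rhamnose). Fitness is the DiMSum error-weighted combination of wild-type-normalised replicate fold changes, kanamycin versus none.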

| Sequence | self-splicing fitness (ln) (30 °C) | self-splicing fitness (ln) (37 °C) |
| --- | --- | --- |
| GCGAAGCAAUAUUACGACCU | -0.269 ± 0.073 | -0.573 ± 0.086 |
| GCGAAGCAAUAUUACGACGA | 0.0165 ± 0.18 | 0.163 ± 0.2 |
| GCGAAGCAAUAUUACGACUG | -1.72 ± 0.14 | -0.66 ± 0.14 |
| GCGAAGCAAUAUUACGAGCC | -3.17 ± 0.23 |  |
| GCGAAGCAAUAUUACGAGGU | -2.98 ± 0.2 | -2.76 ± 0.33 |
| GCGAAGCAAUAUUACGCAAA | -3.14 ± 0.22 | -2.07 ± 0.17 |
| GCGAAGCAAUAUUACGCGCC |  | -1.73 ± 0.4 |
| GCGAAGCAAUAUUACGCUUA | -2.1 ± 0.21 | -0.759 ± 0.2 |
| GCGAAGCAAUAUUACGGAGA | -2.88 ± 0.26 | -2.87 ± 0.44 |
| GCGAAGCAAUAUUACGGCAA | -0.999 ± 0.16 | -0.804 ± 0.16 |
| GCGAAGCAAUAUUACGGGUC |  | -0.782 ± 0.19 |
| GCGAAGCAAUAUUACGGUAU | -3.35 ± 0.18 | -0.774 ± 0.1 |
| GCGAAGCAAUAUUACGGUGU | -3.59 ± 0.14 | -2.66 ± 0.13 |
| GCGAAGCAAUAUUACGUCAA | -3.02 ± 0.19 | -2.05 ± 0.15 |
| GCGAAGCAAUAUUACGUCAC |  | -2.82 ± 0.3 |
| GCGAAGCAAUAUUACGUCAG | -3.41 ± 0.2 | -2.52 ± 0.26 |
| GCGAAGCAAUAUUACGUCCA | -1.16 ± 0.086 | -0.269 ± 0.11 |
| GCGAAGCAAUAUUACGUGUG | -2.61 ± 0.12 | -1.67 ± 0.11 |
| GCGAAGCAAUAUUACGUUGA | -2.59 ± 0.15 | -2.33 ± 0.14 |
| GCGAAGCAAUAUUACGUUGC |  | -1.98 ± 0.2 |

| Sequence | self-splicing fitness (ln) (30 °C) | self-splicing fitness (ln) (37 °C) |
| --- | --- | --- |
| GCGAAGCAAUAUUACGUUGU | -3.58 ± 0.21 | -2.58 ± 0.18 |
| GCGAAGCAAUAUUACGUUUC | -2.9 ± 0.2 |  |
| GCGCAGCAAUAUUACGAACG | -1.37 ± 0.11 | -0.329 ± 0.17 |
| GCGCAGCAAUAUUACGACGG | -1.13 ± 0.14 | -0.906 ± 0.17 |
| GCGCAGCAAUAUUACGAGAC | -3.09 ± 0.23 | -1.18 ± 0.18 |
| GCGCAGCAAUAUUACGAGUU | -0.986 ± 0.066 | -0.241 ± 0.1 |
| GCGCAGCAAUAUUACGCAGG | -3.86 ± 0.31 | -2.09 ± 0.34 |
| GCGCAGCAAUAUUACGCAUA | -0.539 ± 0.1 | -0.285 ± 0.1 |
| GCGCAGCAAUAUUACGCCAG | -2.22 ± 0.26 | -2.28 ± 0.47 |
| GCGCAGCAAUAUUACGCGAG | -1.66 ± 0.08 | -0.987 ± 0.089 |
| GCGCAGCAAUAUUACGCUGU | -3.56 ± 0.23 | -2.86 ± 0.34 |
| GCGCAGCAAUAUUACGGAAG | -1.64 ± 0.12 | -1.66 ± 0.11 |
| GCGCAGCAAUAUUACGGACA | -1.45 ± 0.085 | -0.514 ± 0.089 |
| GCGCAGCAAUAUUACGGAGU | -2 ± 0.11 | -0.744 ± 0.13 |
| GCGCAGCAAUAUUACGGCCA | -0.728 ± 0.12 | -1.03 ± 0.12 |
| GCGCAGCAAUAUUACGGCGU | -3.18 ± 0.33 |  |
| GCGCAGCAAUAUUACGGGCC | -2.96 ± 0.22 | -3.25 ± 0.27 |
| GCGCAGCAAUAUUACGGGUG | -1.87 ± 0.083 | -1.65 ± 0.11 |
| GCGCAGCAAUAUUACGUCUG | -2.4 ± 0.14 | -2.99 ± 0.3 |
| GCGCAGCAAUAUUACGUGAC | -1.83 ± 0.095 | -1.03 ± 0.087 |
